Key:
[1] = 4-HPAA reductase activity assay; format: biochemical; conditions: 5 mM 4-HPAA, 10 mM NADPH, five-minute time point
Procedure: The phenylacetaldehyde reductase activity assays using Rr4HPAR1 and RrPAR2 were carried out in 200 μL reaction buffer (50 mM Tris, pH 8.0) at the presence of 2 mM phenylacetaldehyde, 5 mM NADPH and 5 μg of recombinant enzyme. The reactions were incubated at 30° C. for various time points, quenched with an equal volume of 0.8 M formic acid, and extracted by 100 μL of ethyl acetate. The organic phase was then analyzed by gas chromatography-mass spectrometry (GC-MS) using an 5% Phenyl Methyl Silox column (30 m×250 m×0.25 m, Agilent) with a temperature gradient as follows: 0-1 min 45° C., 4-13.33 min 45-185° C. The quadrupole MS was set to EI mode, electron energy at 70 eV, MS-source temperature at 230° C., MS-quad temperature at 150° C., scan mass range at 50-300 m/z and SIM for 120 m/z and 122 m/z. EI-MS spectra were compared against analytical standards. The 4-HPAA reductase activity assays were carried out in 100 μL of 50 mM Tris pH 8.0 with the addition of 5 mM 4-HPAA, 10 mM NADPH and 0.2 μg of Rr4HPAR1 or […] of Rr4HPAR2. […] The reaction mixture was then centrifuged and analyzed by LC-MS. […] Product formation was measured using select ion monitoring in positive mode for a centroid center mass of 121.065 with a scan width of 0.002. The specific activity was determined at a five-minute reaction time point, and quantified against a standard curve of tyrosol.

[2] = Phenylacetaldehyde reductase activity assay; format: biochemical; conditions: NADPH as co-substrate
Procedure: FIG. 15 is a chromatogram showing the enzymatic reduction of phenylacetaldehyde to phenylethyl alcohol by Rr4HPAR1 and Rr4HPAR2. Chromatogram of positive ion mode metabolites between 50 and 300 m/z show the depletion of phenylacetaldehyde and production of phenylethyl alcohol when exposed to NADPH and Rr4HPAR1 or RrPAR2. Reactions were carried out in 200 μL 50 mM Tris, pH 8.0 in the presence of 2 mM phenylacetaldehyde, 5 mM NADPH and 50 μg of recombinant enzyme. The reactions were incubated at 30° C. for 25 minutes prior to quenching with 200 μL of 0.8 M formic acid, extracted with 100 μL of ethyl acetate and analyzed by gas chromatography-mass spectrometry. Phenylethyl alcohol was verified by comparison to an authentic standard.
The phenylacetaldehyde reductase activity assays using Rr4HPAR1 and RrPAR2 were carried out in 200 μL reaction buffer (50 mM Tris, pH 8.0) at the presence of 2 mM phenylacetaldehyde, 5 mM NADPH and 5 μg of recombinant enzyme. […] The organic phase was then analyzed by gas chromatography-mass spectrometry (GC-MS) using an 5% Phenyl Methyl Silox column (30 m×250 m×0.25 m, Agilent) with a temperature gradient as follows: 0-1 min 45° C., 4-13.33 min 45-185° C. […] The reaction mixture was then centrifuged and analyzed by LC-MS. […] Product formation was measured using select ion monitoring in positive mode for a centroid center mass of 121.065 with a scan width of 0.002. […]

[3] = biological target: Rhodiola rosea Rr4HPAAS, 4-hydroxyphenylacetaldehyde synthase, GenBank MF674522, SEQ ID NO: 2 (Rhodiola rosea, UniProt A0A2I6B3P0); assay: Michaelis-Menten kinetics of Rr4HPAAS against aromatic amino acids; conditions: compared with L-tyrosine and L-DOPA; pH 8.0, 30° C.
Procedure: (§1) The AAS enzyme assays were performed in 100 μL of reaction buffer (50 mM Tris, pH 8.0) containing 50 μg of recombinant enzyme, 200 μM PLP. Kinetic reactions were incubated with a range of amino acid substrate concentrations (1 μM-4 mM) at 30° C. for 30 minutes prior to quenching with 100 μL of 0.8 M formic acid. […] Rr4HPAAS reactions were also analyzed by LC-MS-UV. 50 μL of reaction mixture was analyzed by an Ultimate 3000 liquid chromatography system (Dionex), equipped with a 150 mm C18 Column (Kinetex 2.6 μm silica core shell C18 100 Å pore, Phenomenex) and coupled to an UltiMate 3000 diode-array detector (DAD) in-line UV-Vis spectrophotometer (Dionex) and a TSQ Quantum Access MAX triple-quadrupole mass spectrometer (Thermo-Scientific). To resolve chromatographically L-tyrosine, tyrosol and 4-HPAAA, compounds were separated through the use of an isocratic mobile phase containing 50 mM monopotassium phosphate pH 4.6, 15% (v/v) acetonitrile and 0.5 mM octyl sulfate. Rr4HPAAS product formation was quantified using the UV absorbance at 280 nm and compared to analytical standards using the diode array detector wavelength at a wavelength range of 200-500 nm and chromatographic retention time. […]
Kinetic constants such as Km and Vmax were determined by fitting raw data to the Michaelis-Menten equation using the nonlinear regression function in Prism (version 7.0).

[4] = Hydrogen peroxide production from L-tyrosine by recombinant AAS candidates; format: biochemical; conditions: L-tyrosine as substrate
Procedure: FIG. 12 is a graph showing relative hydrogen peroxide production for the Rr4HPAAS, the RrAAS and the PsTyDC. 100 μL reaction mixtures containing 50 μg of recombinant enzyme, 2 mM L-tyrosine, 50 mM Tris pH 8.0 and 200 μM PLP were incubated at 30° C. for various time points prior to quenching with 100 μL of 0.8 M formic acid. Hydrogen peroxide levels of quenched reaction mixtures were subsequently analyzed using Pierce Quantitative Peroxide Assay Kit against a standard curve of hydrogen peroxide.
as §1, with “PLP.” for “PLP. Kinetic reactions were incubated with a range of amino acid substrate concentrations (1 μM-4 mM) at 30° C. for 30 minutes prior to quenching with 100 μL of 0.8 M formic acid.”, “To resolve chromatographically L-tyrosine, tyrosol and 4-HPAAA, compounds were separated through the use of an isocratic mobile phase containing 50 mM monopotassium phosphate pH 4.6, 15% (v/v) acetonitrile and 0.5 mM octyl sulfate.” left out

N. benthamiana leaves = assay: Agrobacterium-mediated transient expression in leaves with LC-HRAM-MS metabolic profiling; format: in vivo; conditions: leaves harvested 5 days after infiltration
Procedure: To further evaluate the biochemical function of R. rosea tyrosol glycoside biosynthetic genes in planta, these genes were expressed in N. benthamiana leaves using the Agrobacterium tumefaciens-mediated transient protein production technique (Sainsbury et al., 2009) followed by LC-HRAM-MS-based metabolic profiling. […] PsTyDC and the previously reported Petroselinum crispum 4HPAAS (Pc4HPAAS, GenBank: AAA33861) (Torrens-Spence et al., 2012) were also tested in parallel as controls. […] The chemical identity of these compounds was confirmed by both LC-HRAM-MS and nuclear magnetic resonance (NMR) analyses (FIGS. 20-26). […] Next, the in planta regio-specificity of RrT8GT and RrT4GT in tyrosol glycosylation was evaluated. […] Meanwhile, the accumulation of free tyrosol was reduced in these plants compared to those with Rr4HPAAS expression alone (FIG. 27). […]
Crown tissue and root tissue of a three-month-old R. rosea plant was harvested and stored at −80° C. before subsequent metabolomic analysis. […] The extracts were then analyzed by LC-HRAM-MS. […]

[5] = substrate: N[C@@H](Cc1ccc(O)c(O)c1)C(=O)O; assay: purified protein, by the assay type; conditions: other: amino acid substrate 1 μM-4 mM, 200 μM PLP, pH 8.0, 30° C., 30 min, peroxide assay
[6] = substrate: N[C@@H](Cc1ccc(O)cc1)C(=O)O; assay: purified protein, by the assay type; conditions: other: amino acid substrate 1 μM-4 mM, 200 μM PLP, pH 8.0, 30° C., 30 min, peroxide assay
Procedure: The AAS enzyme assays were performed in 100 μL of reaction buffer (50 mM Tris, pH 8.0) containing 50 μg of recombinant enzyme, 200 μM PLP. Kinetic reactions were incubated with a range of amino acid substrate concentrations (1 μM-4 mM) at 30° C. for 30 minutes prior to quenching with 100 μL of 0.8 M formic acid. […] Rr4HPAAS reactions were also analyzed by LC-MS-UV. 50 μL of reaction mixture was analyzed by an Ultimate 3000 liquid chromatography system (Dionex), equipped with a 150 mm C18 Column (Kinetex 2.6 μm silica core shell C18 100 Å pore, Phenomenex) and coupled to an UltiMate 3000 diode-array detector (DAD) in-line UV-Vis spectrophotometer (Dionex) and a TSQ Quantum Access MAX triple-quadrupole mass spectrometer (Thermo-Scientific). To resolve chromatographically L-tyrosine, tyrosol and 4-HPAAA, compounds were separated through the use of an isocratic mobile phase containing 50 mM monopotassium phosphate pH 4.6, 15% (v/v) acetonitrile and 0.5 mM octyl sulfate. Rr4HPAAS product formation was quantified using the UV absorbance at 280 nm and compared to analytical standards using the diode array detector wavelength at a wavelength range of 200-500 nm and chromatographic retention time. The reduction of aldehyde products was achieved by addition of saturated sodium borohydride in ethanol or by addition of 10 mM NADPH and 10 g of Rr4HPAR1 or Rr4HPAR2.

Rr4HPAR1: R. rosea 4-hydroxyphenylacetaldehyde reductase, reduces 4-HPAA to tyrosol
specific activity towards 4-HPAA [1]: 6.9 µmol/min/mg | reduction of phenylacetaldehyde to phenylethanol [2]: higher activity

N[C@@H](Cc1c[nH]c2ccccc12)C(=O)O [L-tryptophan]
substrate preference (Michaelis-Menten kinetics, in words) [3]: much less preferred substrates

N[C@@H](Cc1ccccc1)C(=O)O [L-phenylalanine]
substrate preference (Michaelis-Menten kinetics, in words) [3]: much less preferred substrates

B1: Rhodiola rosea Rr4HPAAS, 4-hydroxyphenylacetaldehyde synthase, GenBank MF674522, SEQ ID NO: 2 (Rhodiola rosea) (protein)
chain: MGSLPSPNDPSNTFNPMDLTELSTESKLVVDFITQYYQTLETRPVQPRVKPGFLTGQLPDKAPFHGESMEVILSDVNEKIVPGLTHWQSPNFHAYFPASSSNAGLLGELLCSGLSVIGFTWSSSPAATELENVVVDWMAKMLNLPSSFCFSGGGGGVLQANTCEAVLCTLAAARDKALNRVGDDQINKLVLYCSDQTHFTIHKGAKLIGIRSKNIKSITTKKENEFKLCPNDLRDAIRSDLEAGLVPFYVCGTIGTTALGVVDPIKELGKVAREFDLWLHVDGAYGGSACICPEFQHYLDGVDLVDSISMNAHKWLLSNLDCCFLWLQSPNALIESLAAEANFLKGGSEMVDYKDWQISLSRRFRAIKMWMVIRRYGVSNLIEHIRSDVSMAVRFEEMVAADDRFEIVFPRKFALVCFKLSSEKTPPGRDSELTRELMERVNSSGKAYLSGVQMGRIFFIRCVIGSSLTEERHVDNLWRLIQETAQSIVS
hydrogen peroxide production [4]: much higher activity | metabolites produced on expression of the enzyme alone (N. benthamiana leaves): significant accumulation of both salidroside and icariside D2 | Km [5]: 1040 ± 100 µM | Km [6]: 420 ± 20 µM | kcat [6]: 4.92 ± 0.08 s⁻¹ | kcat/Km [6]: 11700 M⁻¹ s⁻¹

B2: PsTyDC: Papaver somniferum tyrosine decarboxylase, tested as control (protein, UniProt O82415 1-512, looked up)
Tyrosine decarboxylase: MGSLPTNNLESISLCSQNPLDPDEFRRQGHMIIDFLADYYKNVEKYPVRSQVEPGYLKKRLPESAPYNPESIETILEDVTNDIIPGLTHWQSPNYFAYFPSSGSIAGFLGEMLSTGFNVVGFNWMSSPAATELESIVMNWLGQMLTLPKSFLFSSDGSSGGGGVLQGTTCEAILCTLTAARDKMLNKIGRENINKLVVYASDQTHCALQKAAQIAGINPKNVRAIKTSKATNFGLSPNSLQSAILADIESGLVPLFLCATVGTTSSTAVDPIGPLCAVAKLYGIWVHIDAAYAGSACICPEFRHFIDGVEDADSFSLNAHKWFFTTLDCCCLWVKDSDSLVKALSTSPEYLKNKATESKQVIDYKDWQIALSRRFRSMKLWLVLRSYGVANLRTFLRSHVKMAKHFQGLIGMDNRFEIVVPRTFAMVCFRLKPTAIFKQKIVDNDYIEDQTNEVNVKLLESVNASGKIYMTHAVVGGVYMIRFAVGATLTEERHVTGAWKVVQEHTDAILGA
metabolites produced on expression of the enzyme alone (N. benthamiana leaves): no measurable production of tyrosol glycosides
